Molecular target: bovine serum albumin, P02769
Sequence (P02769 25-607): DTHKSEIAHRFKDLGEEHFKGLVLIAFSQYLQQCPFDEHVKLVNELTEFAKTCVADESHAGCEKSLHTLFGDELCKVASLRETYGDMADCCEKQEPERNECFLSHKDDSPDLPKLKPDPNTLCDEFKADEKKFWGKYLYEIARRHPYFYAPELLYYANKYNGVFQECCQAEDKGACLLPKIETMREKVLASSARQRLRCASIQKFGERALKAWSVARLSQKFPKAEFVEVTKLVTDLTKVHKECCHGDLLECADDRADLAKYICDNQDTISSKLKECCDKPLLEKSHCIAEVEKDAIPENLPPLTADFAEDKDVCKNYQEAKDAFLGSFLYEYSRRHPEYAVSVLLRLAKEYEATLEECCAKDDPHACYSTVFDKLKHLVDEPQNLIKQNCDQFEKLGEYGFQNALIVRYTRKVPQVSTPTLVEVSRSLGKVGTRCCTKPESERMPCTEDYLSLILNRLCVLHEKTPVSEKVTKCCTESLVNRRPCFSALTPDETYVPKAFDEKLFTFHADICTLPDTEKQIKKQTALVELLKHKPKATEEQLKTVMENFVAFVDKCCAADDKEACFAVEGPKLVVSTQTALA

B1: MPO purified from human PMNs (protein)
chain 1: not shown
chain 2: VNCETSCVQQPPCFPLKIPPNDPRIKNQADCIPFFRSCPACPGSNITIRNQINALTSFVDASMVYGSEEPLARNLRNMSNQLGLLAVNQRFQDNGRALLPFDNLHDDPCLLTNRSARIPCFLAGDTRSSEMPELTSMHTLLLREHNRLATELKSLNPRWDGERLYQEARKIVGAMVQIITYRDYLPLVLGPTAMRKYLPTYRSYNDSVDPRIANVFTNAFRYGHTLIQPFMFRLDNRYQPMEPNPRVPLSRVFFASWRVVLEGGIDPILRGLMATPAKLNRQNQIAVDEIRERLFEQVMRIGLDLPALNMQRSRDHGLPGYNAWRRFCGLPQPETVGQLGTVLRNLKLARKLMEQYGTPNNIDIWMGGVSEPLKRKGRVGPLLACIIGTQFRKLRDGDRFWWENEGVFSMQQRQALAQISLPRIICDNTGITTVSKNNIFMSNSYPRDFVNCSTLPALNLASWREAS
For B1, the “endocytosis of MPO in BLMVEC (confocal microscopy)” value was “in the presence of albumin, MPO staining was markedly co-localized with albumin-containing vesicles” and the “transendothelial 125I-MPO permeability (BLMVEC on Transwell filters)” value was “increased more than 2-fold in the presence of albumin, as compared to γ-globulin”.

Reference: patent publication US20070077239
